Measurements: patent US20180186871A1
Read-outs that look alike come from different tables or passages of the source.

What was measured:
Experiment in all cases: cell-based or functional assay
murine IL-11 (mouse) [1] = molecular target: T1, murine IL-11 (mouse) (UniProt P47873)
T1 sequence (looked up): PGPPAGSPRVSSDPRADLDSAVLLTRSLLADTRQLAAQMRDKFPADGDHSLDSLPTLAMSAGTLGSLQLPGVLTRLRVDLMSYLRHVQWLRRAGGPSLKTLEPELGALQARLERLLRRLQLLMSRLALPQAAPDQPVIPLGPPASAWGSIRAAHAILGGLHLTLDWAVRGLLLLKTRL

[2] = molecular target: IL-11:IL-11Rα fusion protein
Sequence of IL-11:IL-11Rα fusion protein (chain, as listed by the source limits assumed): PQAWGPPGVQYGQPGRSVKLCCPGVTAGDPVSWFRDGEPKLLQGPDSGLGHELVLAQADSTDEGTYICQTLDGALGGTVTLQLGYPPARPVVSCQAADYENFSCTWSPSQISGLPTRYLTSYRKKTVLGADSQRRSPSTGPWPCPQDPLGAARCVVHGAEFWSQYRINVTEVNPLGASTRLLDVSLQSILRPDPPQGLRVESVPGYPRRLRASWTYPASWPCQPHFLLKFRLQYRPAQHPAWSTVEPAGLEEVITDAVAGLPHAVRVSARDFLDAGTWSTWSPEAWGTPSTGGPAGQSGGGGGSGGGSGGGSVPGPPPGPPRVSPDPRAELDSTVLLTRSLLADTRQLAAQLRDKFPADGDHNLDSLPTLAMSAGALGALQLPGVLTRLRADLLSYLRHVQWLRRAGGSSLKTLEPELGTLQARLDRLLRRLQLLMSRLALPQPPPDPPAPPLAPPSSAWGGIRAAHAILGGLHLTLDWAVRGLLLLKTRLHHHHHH

murine IL-11 (mouse) [3] = molecular target: T1, murine IL-11 (mouse); remark: listed apart in the source
human IL-11 (human) = human IL-11 (human) (UniProt P20809)

“Monoclonal Mouse IgG2A anti-human IL-11 antibody, Clone #22626, Catalog No. MAB218 (R&D Systems)” showed a percentage of αSMA-positive (activated) fibroblasts, mouse atrial fibroblasts + TGFβ1 (murine IL-11 (mouse) [1]) of 43%, a percentage of αSMA-positive (activated) fibroblasts, mouse atrial fibroblasts + TGFβ1, normalised to unstimulated (=1) (fold of unstimulated) (murine IL-11 (mouse) [1]) of 1.44 and a percentage of αSMA-positive (activated) fibroblasts, human atrial fibroblasts + hyper IL-11 (0.2 ng/ml) [2] of 33.8%. The percentage of αSMA-positive (activated) fibroblasts, human atrial fibroblasts + hyper IL-11 (0.2 ng/ml), normalised to unstimulated (=1) (fold of unstimulated) [2] was 1.28, the percentage of αSMA-positive (activated) fibroblasts, mouse atrial fibroblasts + TGFβ1 (murine IL-11 (mouse) [3]) was 39.4% and the percentage of αSMA-positive (activated) fibroblasts, mouse atrial fibroblasts + TGFβ1, normalised to unstimulated (=1) (fold of unstimulated) (murine IL-11 (mouse) [3]) was 1.24. For the same substance, the percentage of αSMA-positive (activated) fibroblasts, human atrial fibroblasts + TGFβ1 (human IL-11 (human)) was 28.3%, the percentage of αSMA-positive (activated) fibroblasts, human atrial fibroblasts + TGFβ1, normalised to unstimulated (=1) (fold of unstimulated) (human IL-11 (human)) was 0.99 and the percentage of αSMA-positive (activated) fibroblasts, human atrial fibroblasts + TGFβ1, relative to unstimulated (human IL-11 (human)) was 0.89 times.
